Assay results from IntAct's records for PubMed 16525419.

B1: Nephrin (Homo sapiens), O60500 (parent)
chain: MALGTTLRASLLLLGLLTEGLAQLAIPASVPRGFWALPENLTVVEGASVELRCGVSTPGSAVQWAKDGLLLGPDPRIPGFPRYRLEGDPARGEFHLHIEACDLSDDAEYECQVGRSEMGPELVSPRVILSILVPPKLLLLTPEAGTMVTWVAGQEYVVNCVSGDAKPAPDITILLSGQTISDISANVNEGSQQKLFTVEATARVTPRSSDNRQLLVCEASSPALEAPIKASFTVNVLFPPGPPVIEWPGLDEGHVRAGQSLELPCVARGGNPLATLQWLKNGQPVSTAWGTEHTQAVARSVLVMTVRPEDHGAQLSCEAHNSVSAGTQEHGITLQVTFPPSAIIILGSASQTENKNVTLSCVSKSSRPRVLLRWWLGWRQLLPMEETVMDGLHGGHISMSNLTFLARREDNGLTLTCEAFSEAFTKETFKKSLILNVKYPAQKLWIEGPPEGQKLRAGTRVRLVCLAIGGNPEPSLMWYKDSRTVTESRLPQESRRVHLGSVEKSGSTFSRELVLVTGPSDNQAKFTCKAGQLSASTQLAVQFPPTNVTILANASALRPGDALNLTCVSVSSNPPVNLSWDKEGERLEGVAAPPRRAPFKGSAAARSVLLQVSSRDHGQRVTCRAHSAELRETVSSFYRLNVLYRPEFLGEQVLVVTAVEQGEALLPVSVSANPAPEAFNWTFRGYRLSPAGGPRHRILSSGALHLWNVTRADDGLYQLHCQNSEGTAEARLRLDVHYAPTIRALQDPTEVNVGGSVDIVCTVDANPILPGMFNWERLGEDEEDQSLDDMEKISRGPTGRLRIHHAKLAQAGAYQCIVDNGVAPPARRLLRLVVRFAPQVEHPTPLTKVAAAGDSTSSATLHCRARGVPNIVFTWTKNGVPLDLQDPRYTEHTYHQGGVHSSLLTIANVSAAQDYALFTCTATNALGSDQTNIQLVSISRPDPPSGLKVVSLTPHSVGLEWKPGFDGGLPQRFCIRYEALGTPGFHYVDVVPPQATTFTLTGLQPSTRYRVWLLASNALGDSGLADKGTQLPITTPGLHQPSGEPEDQLPTEPPSGPSGLPLLPVLFALGGLLLLSNASCVGGVLWQRRLRRLAEGISEKTEAGSEEDRVRNEYEESQWTGERDTQSSTVSTTEAEPYYRSLRDFSPQLPPTQEEVSYSRGFTGEDEDMAFPGHLYDEVERTYPPSGAWGPLYDEVQMGPWDLHWPEDTYQDPRGIYDQVAGDLDTLEPDSLPFELRGHLV

Key:
nck1_human NCK1, P16333 = variants of: B1; conditions: with nck1_human NCK1, P16333
nck2_human NCK2, O43639 [1] = variants of: B1; conditions: with nck2_human NCK2, O43639
Chain of nck2_human NCK2, O43639 (O43639 whole entry): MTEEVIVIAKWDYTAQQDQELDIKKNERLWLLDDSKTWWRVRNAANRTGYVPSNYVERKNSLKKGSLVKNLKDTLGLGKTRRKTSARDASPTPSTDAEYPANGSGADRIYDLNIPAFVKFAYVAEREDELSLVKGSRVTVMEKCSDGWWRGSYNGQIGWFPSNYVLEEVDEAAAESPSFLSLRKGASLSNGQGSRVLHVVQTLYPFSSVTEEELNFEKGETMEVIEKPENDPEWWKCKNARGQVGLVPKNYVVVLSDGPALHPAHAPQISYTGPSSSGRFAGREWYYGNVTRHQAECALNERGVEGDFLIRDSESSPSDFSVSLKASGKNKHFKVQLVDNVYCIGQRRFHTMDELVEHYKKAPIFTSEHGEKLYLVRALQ

wasp_mouse Was, P70315 = variants of: B1; conditions: with wasp_mouse Was
Chain of wasp_mouse Was, P70315 (P70315 whole entry): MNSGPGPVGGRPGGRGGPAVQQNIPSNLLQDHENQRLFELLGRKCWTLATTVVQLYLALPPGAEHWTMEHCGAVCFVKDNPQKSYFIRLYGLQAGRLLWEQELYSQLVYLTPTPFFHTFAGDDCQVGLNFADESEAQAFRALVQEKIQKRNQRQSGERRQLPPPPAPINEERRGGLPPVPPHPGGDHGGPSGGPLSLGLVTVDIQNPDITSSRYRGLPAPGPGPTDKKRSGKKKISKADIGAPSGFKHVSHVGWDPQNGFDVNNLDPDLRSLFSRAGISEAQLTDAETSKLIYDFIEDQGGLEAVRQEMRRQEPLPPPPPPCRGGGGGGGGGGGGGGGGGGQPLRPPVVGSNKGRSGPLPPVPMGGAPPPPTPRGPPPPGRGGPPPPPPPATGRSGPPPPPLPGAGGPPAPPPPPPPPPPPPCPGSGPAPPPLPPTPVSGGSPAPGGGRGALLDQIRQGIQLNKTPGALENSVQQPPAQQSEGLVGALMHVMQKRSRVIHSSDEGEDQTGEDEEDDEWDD

nck2_human NCK2, O43639 [2] = variants of: B1; conditions: with nck2_human NCK2, O43639; remark: listed apart in the source

| Variant | effect of a mutation on the interaction (nck1_human NCK1, P16333) | effect of a mutation on the interaction (nck2_human NCK2, O43639 [1]) | effect of a mutation on the interaction (wasp_mouse Was, P70315) | effect of a mutation on the interaction (nck2_human NCK2, O43639 [2]) |
| --- | --- | --- | --- | --- |
| Y1193F;Y1217F | decreasing interaction |  |  |  |
| Y1176F;Y1217F | decreasing interaction |  |  |  |
| Y1176F;Y1193F;Y1217F | decreasing interaction | disrupting interaction | disrupting interaction | disrupting interaction |
